From US20140031294A1 (NOVOZYMES BIOPHARMA UK, published 2014)

Target: transferrin receptor on human erythroleukemic K562 cells (human, UniProt P02786 1-760)
Assay: cell-based or functional assay

transferrin receptor on human erythroleukemic K562 cells, sequence (P02786 whole entry): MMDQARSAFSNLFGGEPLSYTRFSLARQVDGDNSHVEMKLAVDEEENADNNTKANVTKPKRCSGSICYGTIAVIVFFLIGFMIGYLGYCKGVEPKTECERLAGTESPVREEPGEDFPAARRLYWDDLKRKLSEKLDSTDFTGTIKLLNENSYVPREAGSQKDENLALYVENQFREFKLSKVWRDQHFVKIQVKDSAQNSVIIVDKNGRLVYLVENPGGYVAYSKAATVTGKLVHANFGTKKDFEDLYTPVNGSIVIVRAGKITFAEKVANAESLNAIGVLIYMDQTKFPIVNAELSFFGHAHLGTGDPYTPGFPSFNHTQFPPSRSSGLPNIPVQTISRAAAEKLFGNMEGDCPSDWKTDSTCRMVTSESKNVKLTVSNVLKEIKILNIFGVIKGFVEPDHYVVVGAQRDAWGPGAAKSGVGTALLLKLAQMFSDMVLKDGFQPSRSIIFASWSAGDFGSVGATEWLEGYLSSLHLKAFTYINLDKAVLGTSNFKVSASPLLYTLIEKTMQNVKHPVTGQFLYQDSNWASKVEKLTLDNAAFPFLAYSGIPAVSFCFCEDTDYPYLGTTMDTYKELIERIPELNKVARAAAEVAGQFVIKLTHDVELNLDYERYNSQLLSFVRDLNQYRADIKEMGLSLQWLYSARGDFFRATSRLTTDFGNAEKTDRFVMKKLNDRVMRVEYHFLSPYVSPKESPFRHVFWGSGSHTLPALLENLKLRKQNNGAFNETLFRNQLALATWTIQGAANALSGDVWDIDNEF

- Apparent Affinity (competition against 55Fe uptake from labelled plasma transferrin by K562 cells): 123 nM
B1: recombinant transferrin (N413Q, N611Q) (ligand)
chain: VPDKTVRWCAVSEHEATKCQSFRDHMKSVIPSDGPSVACVKKASYLDCIRAIAANEADAVTLDAGLVYDAYLAPNNLKPVVAEFYGSKEDPQTFYYAVAVVKKDSGFQMNQLRGKKSCHTGLGRSAGWNIPIGLLYCDLPEPRKPLEKAVANFFSGSCAPCADGTDFPQLCQLCPGCGCSTLNQYFGYSGAFKCLKDGAGDVAFVKHSTIFENLANKADRDQYELLCLDNTRKPVDEYKDCHLAQVPSHTVVARSMGGKEDLIWELLNQAQEHFGKDKSKEFQLFSSPHGKDLLFKDSAHGFLKVPPRMDAKMYLGYEYVTAIRNLREGTCPEAPTDECKPVKWCALSHHERLKCDEWSVNSVGKIECVSAETTEDCIAKIMNGEADAMSLDGGFVYIAGKCGLVPVLAENYQKSDNCEDTPEAGYFAVAVVKKSASDLTWDNLKGKKSCHTAVGRTAGWNIPMGLLYNKINHCRFDEFFSEGCAPGSKKDSSLCKLCMGSGLNLCEPNNKEGYYGYTGAFRCLVEKGDVAFVKHQTVPQNTGGKNPDPWAKNLNEKDYELLCLDGTRKPVEEYANCHLARAPNHAVVTRKDKEACVHKILRQQQHLFGSQVTDCSGNFCLFRSETKDLLFRDDTVCLAKLHDRNTYEKYLGEEYVKAVGNLRKCSTSSLLEACTFRRP
